This is an account of results in patent US20220332804A1 (CSL INNOVATION, published 2022).

Experiment in all cases: SPR, antibody captured, C2 as analyte;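 further: biacore at 37 °C, anti-C2 mAbs held by immobilised goat anti-human IgG, C2 alanine or serine mutants injected, double-referenced sensorgrams fitted to a 1:1 kinetic or steady-state model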
In general terms: SPR reads the build-up and loss of mass on a sensor chip optically.

The target of assay [1] is T1, human C2 N424A (human, UniProt P06681 21-752).
T1 sequence: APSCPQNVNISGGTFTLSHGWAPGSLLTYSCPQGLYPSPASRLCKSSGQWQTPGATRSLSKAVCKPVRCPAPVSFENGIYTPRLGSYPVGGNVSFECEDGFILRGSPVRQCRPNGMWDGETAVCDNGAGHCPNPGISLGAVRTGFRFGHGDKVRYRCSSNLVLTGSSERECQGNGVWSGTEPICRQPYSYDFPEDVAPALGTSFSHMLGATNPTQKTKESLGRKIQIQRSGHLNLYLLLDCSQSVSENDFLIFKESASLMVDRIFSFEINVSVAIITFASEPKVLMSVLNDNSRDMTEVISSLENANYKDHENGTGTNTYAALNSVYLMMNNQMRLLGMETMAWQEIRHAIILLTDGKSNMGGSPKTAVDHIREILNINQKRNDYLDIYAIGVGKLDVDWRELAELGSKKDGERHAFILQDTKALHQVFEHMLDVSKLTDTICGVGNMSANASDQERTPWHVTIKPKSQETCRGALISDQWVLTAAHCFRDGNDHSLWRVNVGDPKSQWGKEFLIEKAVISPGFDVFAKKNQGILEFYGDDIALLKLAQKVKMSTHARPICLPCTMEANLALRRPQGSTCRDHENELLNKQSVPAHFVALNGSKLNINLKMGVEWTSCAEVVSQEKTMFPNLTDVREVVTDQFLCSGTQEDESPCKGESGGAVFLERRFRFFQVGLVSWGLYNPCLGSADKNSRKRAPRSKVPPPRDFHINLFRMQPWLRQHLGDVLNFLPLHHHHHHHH

Assay [2] concerns the target T2, human C2 K443A (human, UniProt P06681 21-752).
T2 sequence: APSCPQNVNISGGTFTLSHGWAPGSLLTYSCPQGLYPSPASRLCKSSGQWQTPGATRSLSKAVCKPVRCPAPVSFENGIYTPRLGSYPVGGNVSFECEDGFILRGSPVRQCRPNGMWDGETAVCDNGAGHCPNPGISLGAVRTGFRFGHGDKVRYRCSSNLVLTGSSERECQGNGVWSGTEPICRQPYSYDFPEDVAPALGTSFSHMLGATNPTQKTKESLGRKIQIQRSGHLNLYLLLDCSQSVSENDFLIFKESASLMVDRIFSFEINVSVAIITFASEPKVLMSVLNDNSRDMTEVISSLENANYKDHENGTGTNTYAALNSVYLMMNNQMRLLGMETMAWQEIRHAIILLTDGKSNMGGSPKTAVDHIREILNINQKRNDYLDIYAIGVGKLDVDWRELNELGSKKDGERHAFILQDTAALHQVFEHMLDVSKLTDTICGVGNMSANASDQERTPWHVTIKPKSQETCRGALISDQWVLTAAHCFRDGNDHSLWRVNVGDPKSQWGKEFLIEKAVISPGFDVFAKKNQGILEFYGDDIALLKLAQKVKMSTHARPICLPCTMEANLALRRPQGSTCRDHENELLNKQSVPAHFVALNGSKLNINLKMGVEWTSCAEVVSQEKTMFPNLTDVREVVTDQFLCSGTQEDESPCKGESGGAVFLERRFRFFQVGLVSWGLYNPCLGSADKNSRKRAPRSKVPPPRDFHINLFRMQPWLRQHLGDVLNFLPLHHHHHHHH

In assay [3] the target is T3, human C2 H446A (human, UniProt P06681 21-752).
T3 sequence: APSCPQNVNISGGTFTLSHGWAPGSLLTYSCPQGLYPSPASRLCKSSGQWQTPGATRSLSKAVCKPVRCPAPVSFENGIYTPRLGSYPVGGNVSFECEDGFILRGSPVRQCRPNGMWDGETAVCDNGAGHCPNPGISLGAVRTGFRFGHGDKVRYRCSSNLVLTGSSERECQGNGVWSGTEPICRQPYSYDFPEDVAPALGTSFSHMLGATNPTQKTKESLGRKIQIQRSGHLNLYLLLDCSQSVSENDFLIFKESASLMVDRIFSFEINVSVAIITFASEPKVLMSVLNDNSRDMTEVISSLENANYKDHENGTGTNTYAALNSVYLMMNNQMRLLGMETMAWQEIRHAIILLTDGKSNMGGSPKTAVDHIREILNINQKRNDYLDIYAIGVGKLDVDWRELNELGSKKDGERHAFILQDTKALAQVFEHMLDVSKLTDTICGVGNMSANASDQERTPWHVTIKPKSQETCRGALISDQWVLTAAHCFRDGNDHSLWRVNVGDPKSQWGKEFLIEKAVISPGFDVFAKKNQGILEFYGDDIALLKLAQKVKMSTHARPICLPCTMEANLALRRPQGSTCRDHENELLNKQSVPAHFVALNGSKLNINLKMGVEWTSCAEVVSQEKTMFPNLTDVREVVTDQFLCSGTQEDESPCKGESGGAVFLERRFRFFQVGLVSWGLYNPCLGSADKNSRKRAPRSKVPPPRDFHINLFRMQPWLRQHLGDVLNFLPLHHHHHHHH

For assay [4], the target named is T4, human C2 G677A (human, UniProt P06681 21-752).
T4 sequence: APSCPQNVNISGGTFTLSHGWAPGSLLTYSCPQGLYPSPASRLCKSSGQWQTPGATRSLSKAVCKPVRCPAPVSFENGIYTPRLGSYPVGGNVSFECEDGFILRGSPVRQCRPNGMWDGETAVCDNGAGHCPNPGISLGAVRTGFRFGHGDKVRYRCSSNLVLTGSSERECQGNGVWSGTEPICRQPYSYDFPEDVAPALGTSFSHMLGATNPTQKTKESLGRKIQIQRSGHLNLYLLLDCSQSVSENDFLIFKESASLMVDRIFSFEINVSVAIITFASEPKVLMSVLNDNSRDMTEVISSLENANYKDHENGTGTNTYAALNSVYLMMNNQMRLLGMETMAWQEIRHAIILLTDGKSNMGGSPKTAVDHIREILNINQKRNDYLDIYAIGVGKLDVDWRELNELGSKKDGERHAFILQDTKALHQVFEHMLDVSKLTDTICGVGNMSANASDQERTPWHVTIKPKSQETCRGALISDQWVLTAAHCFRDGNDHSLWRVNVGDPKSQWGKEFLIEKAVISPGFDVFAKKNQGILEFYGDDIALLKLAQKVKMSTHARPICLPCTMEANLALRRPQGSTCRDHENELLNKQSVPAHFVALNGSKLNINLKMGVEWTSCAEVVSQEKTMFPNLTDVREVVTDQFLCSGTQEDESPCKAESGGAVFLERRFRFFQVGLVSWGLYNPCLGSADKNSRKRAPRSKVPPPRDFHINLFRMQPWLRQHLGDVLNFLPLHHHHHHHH

B1: RF16-242 (antibody, human IgG4 S228P, lambda, V domains shown)
VH: EVQLLQSGAEVKKPGESLKISCKGSGYSFTSYWIGWVRQMPGKGLEWMGIIYPGDSDTRYSPSFQGQVTISADKSISTAYLQWSSLKASDTAMYYCARRGHYGDYFDYWGQGTLVTVSS
VL: SYELTQPPSVSVSPGQTARITCSGDALPKKYAYWYHQKSGQAPVLVIYEDRRRPSEIPERFSGSSSGTMATLTITGAQVEDEGVYFCYSRDRAGNQRVFGGGTQLTVLG
notes: pH-dependent anti-C2 antibody from a phage display library
By Kd is commonly meant the concentration at which binding is half-saturated. A higher Kd goes with lower affinity. Take B1: the Kd in assay [1] turned out to be 5.7 nM; in assay [3], 16.1 nM; in assay [4], 6.8 nM. Besides, the binding result in assay [2] is “no binding”.
